These results are taken from patent US20170306017A1 (VACCINEX, published 2017).

The target of assay [1] is T1, human CD100 (human, UniProt Q92854 22-734, limits assumed).
T1 construct: also called huCD100; SEMA4D
T1 sequence: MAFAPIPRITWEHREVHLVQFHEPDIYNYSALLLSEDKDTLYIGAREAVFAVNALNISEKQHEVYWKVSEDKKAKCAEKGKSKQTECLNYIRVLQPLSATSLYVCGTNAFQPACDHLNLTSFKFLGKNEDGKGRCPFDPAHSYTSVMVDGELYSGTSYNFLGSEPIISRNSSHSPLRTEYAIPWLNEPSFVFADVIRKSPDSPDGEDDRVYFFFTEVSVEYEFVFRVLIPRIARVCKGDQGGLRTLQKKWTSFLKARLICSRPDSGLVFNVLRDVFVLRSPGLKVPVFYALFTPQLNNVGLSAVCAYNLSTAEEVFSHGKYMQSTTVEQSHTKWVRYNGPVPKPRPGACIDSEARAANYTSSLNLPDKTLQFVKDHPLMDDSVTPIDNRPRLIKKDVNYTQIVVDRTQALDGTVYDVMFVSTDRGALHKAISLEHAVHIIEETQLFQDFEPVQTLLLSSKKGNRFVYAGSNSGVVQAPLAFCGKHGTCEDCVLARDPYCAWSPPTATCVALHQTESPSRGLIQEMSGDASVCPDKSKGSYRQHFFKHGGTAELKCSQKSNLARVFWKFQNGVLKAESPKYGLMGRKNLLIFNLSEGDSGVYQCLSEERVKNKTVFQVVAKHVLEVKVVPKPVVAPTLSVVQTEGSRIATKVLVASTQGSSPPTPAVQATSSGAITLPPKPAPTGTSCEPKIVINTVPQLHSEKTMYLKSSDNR
Put plainly: BIACORE surface plasmon resonance. (In general: SPR reads the build-up and loss of mass on a sensor chip optically.)

Assay [2] has as its target T2, mouse CD100 (mouse, UniProt O09126 24-733, limits assumed).
T2 construct: also called murine CD100; muCD100
T2 sequence: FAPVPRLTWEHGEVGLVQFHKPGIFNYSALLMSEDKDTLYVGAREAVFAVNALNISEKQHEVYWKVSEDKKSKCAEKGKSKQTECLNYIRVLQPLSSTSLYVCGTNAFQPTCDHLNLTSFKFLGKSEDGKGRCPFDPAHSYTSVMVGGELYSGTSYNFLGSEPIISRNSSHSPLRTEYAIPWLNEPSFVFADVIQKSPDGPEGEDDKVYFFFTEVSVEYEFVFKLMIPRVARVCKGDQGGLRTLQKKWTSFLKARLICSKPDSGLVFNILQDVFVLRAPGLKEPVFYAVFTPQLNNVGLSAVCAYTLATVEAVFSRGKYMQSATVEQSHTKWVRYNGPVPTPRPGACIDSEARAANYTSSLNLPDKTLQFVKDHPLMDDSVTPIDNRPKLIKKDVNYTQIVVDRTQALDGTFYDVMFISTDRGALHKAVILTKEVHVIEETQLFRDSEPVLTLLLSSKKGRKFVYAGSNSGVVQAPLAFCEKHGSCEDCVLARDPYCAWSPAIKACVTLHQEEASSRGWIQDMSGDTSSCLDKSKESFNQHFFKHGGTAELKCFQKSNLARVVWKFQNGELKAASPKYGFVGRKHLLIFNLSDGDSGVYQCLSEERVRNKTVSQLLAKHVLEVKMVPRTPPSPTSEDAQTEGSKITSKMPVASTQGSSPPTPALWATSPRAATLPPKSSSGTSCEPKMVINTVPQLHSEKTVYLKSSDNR
Put plainly: BIACORE surface plasmon resonance.

The target in assay [3] is T1, human CD100. Put plainly: BIACORE surface plasmon resonance. As for the experimental part: (§1) Binding affinities of anti-CD100 MAbs were determined using BIACORE® surface plasmon resonance technology.
The source holds these as a separate data set.

In assay [4] the target is T2, mouse CD100. Put plainly: BIACORE surface plasmon resonance. How it is done: as §1
The source holds these as a separate data set.

A further assay concerns the target T3, marmoset CD100 (marmoset, UniProt A0A8I3W811 22-734).
T3 construct: also called marmCD100; monkey CD100
T3 sequence: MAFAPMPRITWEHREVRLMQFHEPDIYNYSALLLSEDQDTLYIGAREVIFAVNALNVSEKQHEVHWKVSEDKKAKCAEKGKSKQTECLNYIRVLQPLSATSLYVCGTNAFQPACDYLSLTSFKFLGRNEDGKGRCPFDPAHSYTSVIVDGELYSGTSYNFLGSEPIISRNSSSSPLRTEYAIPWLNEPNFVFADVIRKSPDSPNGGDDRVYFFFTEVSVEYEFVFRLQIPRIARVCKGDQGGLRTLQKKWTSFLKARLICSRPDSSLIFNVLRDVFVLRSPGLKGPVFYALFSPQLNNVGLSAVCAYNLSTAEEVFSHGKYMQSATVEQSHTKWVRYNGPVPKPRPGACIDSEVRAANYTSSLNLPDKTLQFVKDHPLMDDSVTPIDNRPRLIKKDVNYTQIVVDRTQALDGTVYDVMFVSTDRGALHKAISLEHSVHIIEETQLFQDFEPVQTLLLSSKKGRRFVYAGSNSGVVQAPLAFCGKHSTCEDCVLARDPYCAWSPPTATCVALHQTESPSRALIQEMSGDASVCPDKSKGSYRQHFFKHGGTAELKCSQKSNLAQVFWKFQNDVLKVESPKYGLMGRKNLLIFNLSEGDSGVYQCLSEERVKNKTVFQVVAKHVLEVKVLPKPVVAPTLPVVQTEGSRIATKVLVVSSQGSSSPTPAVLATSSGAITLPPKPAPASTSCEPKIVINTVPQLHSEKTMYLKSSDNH
Put plainly: BIACORE surface plasmon resonance. How it is done:
as §1

The target in another assay is T4, human CD100-Fc (human, UniProt Q92854 22-734, limits assumed).
T4 sequence: T1 sequence
Put plainly: competition ELISA on plate-coated human CD100-Fc; unlabelled antibody titrated first, competitor biotinylated MAb 67 detected with streptavidin-HRP. As for the experimental part:
For the ELISA protocol, an ELISA plate was coated with CD100-Fc. […] The antibodies were allowed to bind to CD100 and unbound antibody was wash away. Biotinylated MAb 67 was added. Biotinylated MAb 67 bound to CD100 was detected using Streptavidin-HRP.

Read-outs that look alike come from different tables or passages of the source.

B1: MAb 76 (antibody, IgG2b, V domains shown)
VH: QVQLQQSGAELAKPGASVKMSCKASGYTFTRYWMHWVKQRPGQGLEWIGYINPSTGYSDYNQKFKDKATLTADKSSSTAYMQLSSLTSEDSAVYYCARDPYGWTMDSWGQGTLVTVSS
VL: DIQMTQSPSSLSASLGDTITITCHASQNINVWLSWYQQKPGNIPKLLIYKASNLHTGVPSRFSGSGSGTGFTLTISSLQPEDIATYYCQQGQSYPYTFGGGTKLEIK
notes: also called clone 76-1; 76-1
For orientation: Kd means the free concentration of one partner at which half of the binding sites on the other are occupied at equilibrium, for simple one-to-one binding. A lower Kd goes with a tighter complex. Take B1: the Kd with human CD100 [1] was 0.12 nM; with mouse CD100 [2], 0.33 nM.

B2: MAb 2503 (antibody, V domains shown)
VH: QVQLVQSGAEVKKPGSSVKVSCKASGYSFSDYYMHWVRQAPGQGLEWMGQINPTTGGASYNQKFKGKATITVDKSTSTAYMELSSLRSEDTAVYYCARYYYGRHFDVWGQGTTVTVSS
VL: DIVMTQSPDSLAVSLGERATINCKASQSVDYDGDSYMNWYQQKPGQPPKLLIYAASNLESGVPDRFSGSGSGTDFTLTISSLQAEDVAVYYCQQSNEDPYTFGQGTKLEIK
notes: also called humanized MAb 67; H2160/L553
For the molecule B2, the Kd turned out to be 5.4 nM with human CD100 [3], 1.5 nM in the assay with mouse CD100 [4] and 2.4 nM with marmoset CD100. Moreover, in the assay with human CD100-Fc, the “IC50 (read off the curve)” value was roughly 0.2 nM.

B3: MAb 67 (antibody, IgG1, V domains shown)
VH: QVQLQQSGPELVKPGASVKISCKASGYSFSDYYMHWVKQSPENSLEWIGQINPTTGGASYNQKFKGKATLTVDKSSSTAYMQLKSLTSEESAVYYCTRYYYGRHFDVWGQGTTVTVSS
VL: DIVMTQSPASLAVSLGQRATISCKASQSVDYDGDSYMNWYQQKPGQPPKLLIYAASNLESGIPARFSGSGSGTDFTLNIHPVEEEDAATYYCQQSNEDPYTFGGGTKLEIK
notes: also called mouse MAb 67; murine MAb 67
Molecule B3 showed an equilibrium dissociation constant (Kd) with marmoset CD100 of 2.7 nM.
